Legend:
[1] = target: Hel308 Mbu-E284Faz E284Faz (Methanococcoides burtonii) (UniProt Q12WZ6); settings: four nitroindoles between SEQ 155 3' end and SEQ 154 5' end; percent of movements reaching polyT; nanopore; 960 mM KCl, 10 mM MgCl2, 1 mM ATP, +120 mV
[2] = target: Hel308 Mbu-E284Faz heat treated E284Faz (Methanococcoides burtonii) (UniProt Q12WZ6); settings: four nitroindoles between SEQ 155 3' end and SEQ 154 5' end; percent of movements reaching polyT; 500 nM enzyme; nanopore; 960 mM KCl, 10 mM MgCl2, 1 mM ATP
Chain of Hel308 Mbu-E284Faz heat treated E284Faz (Methanococcoides burtonii) (Q12WZ6 whole entry): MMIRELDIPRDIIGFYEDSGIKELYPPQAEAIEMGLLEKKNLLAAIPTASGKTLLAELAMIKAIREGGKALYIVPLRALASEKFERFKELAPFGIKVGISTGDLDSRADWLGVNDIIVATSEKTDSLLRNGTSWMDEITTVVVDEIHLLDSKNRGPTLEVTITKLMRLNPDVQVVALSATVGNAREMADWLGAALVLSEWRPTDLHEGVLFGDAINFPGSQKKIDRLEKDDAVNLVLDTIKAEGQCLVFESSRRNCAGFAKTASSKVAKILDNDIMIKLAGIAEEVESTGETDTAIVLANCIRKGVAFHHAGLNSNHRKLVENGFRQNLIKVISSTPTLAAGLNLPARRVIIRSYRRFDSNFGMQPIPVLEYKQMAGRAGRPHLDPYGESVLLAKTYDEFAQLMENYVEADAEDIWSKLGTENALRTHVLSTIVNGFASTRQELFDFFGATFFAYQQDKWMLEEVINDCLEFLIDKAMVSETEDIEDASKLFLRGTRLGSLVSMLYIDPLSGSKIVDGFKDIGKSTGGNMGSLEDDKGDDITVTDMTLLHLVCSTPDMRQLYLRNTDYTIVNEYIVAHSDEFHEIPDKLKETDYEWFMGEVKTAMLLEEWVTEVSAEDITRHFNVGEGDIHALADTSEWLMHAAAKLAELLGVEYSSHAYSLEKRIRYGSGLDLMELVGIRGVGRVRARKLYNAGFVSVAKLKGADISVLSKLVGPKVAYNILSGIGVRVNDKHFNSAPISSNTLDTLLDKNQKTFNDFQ

Chain of Hel308 Mbu-E284Faz E284Faz (Methanococcoides burtonii) (Q12WZ6 whole entry): as above

3.6 kb DNA
activity [1]: 28% | activity [2]: 71%

From US20240417704
